Assay results from paper PMC5758903.

B1: A1 -20/5' (structured_DNA)
DNA: CCTATGGTCCCCGCGTAGGTGGCAGCTCAAACCCGATTCGAGGAACATGCGTCGCAAAC
B2: Ref aptamer (ssDNA)
DNA: ACTGACTGACTGACTGACTGACTGACTGACTGACTGACTGACTGACTGACTGACTGACTGACTGACTGACTGACTGACT

What was measured:
[1] = biological target: PCNA (tag-free);DNA polymerase delta (human;human, UniProt P12004;P28340;P49005;Q15054;Q9HCU8 1-261;1-1107;1-469;1-466;1-107, |); experiment: EMSA
[2] = biological target: T1, HisTag-PCNA (human, UniProt P12004 1-261); experiment: pull-down titration
[3] = biological target: DNA polymerase delta (human, UniProt P28340;P49005;Q15054;Q9HCU8 1-1107;1-469;1-466;1-107); experiment: EMSA
[4] = biological target: T1, HisTag-PCNA; experiment: ITC
[5] = biological target: T1, HisTag-PCNA; experiment: pull-down

T1 sequence (P12004 whole entry): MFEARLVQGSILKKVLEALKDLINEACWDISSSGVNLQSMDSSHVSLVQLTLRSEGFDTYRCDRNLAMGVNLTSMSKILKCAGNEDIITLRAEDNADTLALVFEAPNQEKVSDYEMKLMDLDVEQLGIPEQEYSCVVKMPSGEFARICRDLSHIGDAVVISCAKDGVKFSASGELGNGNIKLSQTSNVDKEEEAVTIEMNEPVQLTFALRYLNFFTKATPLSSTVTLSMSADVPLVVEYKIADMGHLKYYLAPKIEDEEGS
Sequence of DNA polymerase delta (P28340 whole entry, stated change not applied, chain 1 of 4): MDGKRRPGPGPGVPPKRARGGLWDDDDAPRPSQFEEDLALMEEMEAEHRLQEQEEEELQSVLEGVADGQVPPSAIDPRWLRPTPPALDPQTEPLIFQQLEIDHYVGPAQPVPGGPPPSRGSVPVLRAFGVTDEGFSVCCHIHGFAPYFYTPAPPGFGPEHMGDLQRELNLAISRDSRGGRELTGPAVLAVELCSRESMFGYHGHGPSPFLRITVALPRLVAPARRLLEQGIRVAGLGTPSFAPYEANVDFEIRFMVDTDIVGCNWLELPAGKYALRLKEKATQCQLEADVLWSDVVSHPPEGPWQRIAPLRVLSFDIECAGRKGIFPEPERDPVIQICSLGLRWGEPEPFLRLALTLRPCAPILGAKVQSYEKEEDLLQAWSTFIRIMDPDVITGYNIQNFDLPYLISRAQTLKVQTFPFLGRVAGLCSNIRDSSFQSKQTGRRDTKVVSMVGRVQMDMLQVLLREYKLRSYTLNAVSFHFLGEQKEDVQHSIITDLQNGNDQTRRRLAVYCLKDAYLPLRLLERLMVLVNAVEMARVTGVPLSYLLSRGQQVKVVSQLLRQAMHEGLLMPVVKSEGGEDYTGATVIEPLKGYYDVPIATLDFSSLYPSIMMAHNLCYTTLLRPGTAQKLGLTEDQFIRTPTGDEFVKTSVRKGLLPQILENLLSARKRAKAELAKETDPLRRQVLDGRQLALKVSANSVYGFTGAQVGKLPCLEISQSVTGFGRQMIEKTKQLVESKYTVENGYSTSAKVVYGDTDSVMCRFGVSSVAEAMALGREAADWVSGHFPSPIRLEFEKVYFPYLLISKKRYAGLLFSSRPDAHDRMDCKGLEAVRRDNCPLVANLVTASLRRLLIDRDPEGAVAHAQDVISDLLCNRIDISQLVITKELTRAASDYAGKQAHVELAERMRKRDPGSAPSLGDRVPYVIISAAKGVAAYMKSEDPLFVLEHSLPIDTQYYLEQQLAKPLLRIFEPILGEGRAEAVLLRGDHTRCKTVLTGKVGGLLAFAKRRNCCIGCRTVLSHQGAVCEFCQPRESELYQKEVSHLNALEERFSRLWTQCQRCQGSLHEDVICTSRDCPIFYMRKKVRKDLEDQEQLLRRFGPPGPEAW
Sequence of DNA polymerase delta (P49005 whole entry, stated change not applied, chain 2 of 4): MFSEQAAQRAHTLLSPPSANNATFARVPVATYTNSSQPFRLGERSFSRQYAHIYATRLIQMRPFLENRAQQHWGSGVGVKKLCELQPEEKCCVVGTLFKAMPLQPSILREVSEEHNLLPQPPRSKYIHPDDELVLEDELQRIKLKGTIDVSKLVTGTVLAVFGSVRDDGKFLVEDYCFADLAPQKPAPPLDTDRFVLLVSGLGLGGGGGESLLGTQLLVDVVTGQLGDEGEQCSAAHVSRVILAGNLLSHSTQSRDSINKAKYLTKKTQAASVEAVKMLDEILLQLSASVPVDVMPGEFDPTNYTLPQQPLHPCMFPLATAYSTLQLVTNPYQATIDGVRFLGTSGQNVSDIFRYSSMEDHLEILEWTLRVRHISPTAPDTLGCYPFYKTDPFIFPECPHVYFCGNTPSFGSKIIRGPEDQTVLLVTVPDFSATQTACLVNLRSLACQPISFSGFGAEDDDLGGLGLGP
Sequence of DNA polymerase delta (Q15054 whole entry, stated change not applied, chain 3 of 4): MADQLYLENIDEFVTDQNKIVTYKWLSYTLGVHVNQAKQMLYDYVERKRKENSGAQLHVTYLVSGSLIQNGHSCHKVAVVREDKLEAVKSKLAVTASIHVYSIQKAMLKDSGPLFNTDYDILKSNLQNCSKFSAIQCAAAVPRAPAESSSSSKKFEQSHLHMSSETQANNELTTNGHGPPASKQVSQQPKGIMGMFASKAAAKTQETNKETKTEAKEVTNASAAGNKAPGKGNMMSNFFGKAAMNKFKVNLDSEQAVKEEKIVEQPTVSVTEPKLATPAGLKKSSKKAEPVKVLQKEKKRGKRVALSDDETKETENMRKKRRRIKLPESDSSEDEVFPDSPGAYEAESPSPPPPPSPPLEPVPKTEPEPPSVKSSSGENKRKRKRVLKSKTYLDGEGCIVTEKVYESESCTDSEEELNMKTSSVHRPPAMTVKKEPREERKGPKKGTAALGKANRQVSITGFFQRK
Sequence of DNA polymerase delta (Q9HCU8 whole entry, stated change not applied, chain 4 of 4): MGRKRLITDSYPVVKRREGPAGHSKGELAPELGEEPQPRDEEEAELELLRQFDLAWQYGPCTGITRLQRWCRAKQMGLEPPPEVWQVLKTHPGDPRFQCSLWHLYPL

Binder | binding result [1] | Kd [2] | binding result [3] | Kd [4] | binding result [5]
CATGCTTCCCCAGGGAGATGCCTATGGTCCCCGCGTAGGTGGCAGCTCA (structured_DNA) [alpha-PCNA aptamer (A1 -30/3')] | binds | 5.1 ± 0.59 µM | no binding | 2 ± 0.64 µM | 
B1 |  |  |  |  | no binding
CATGCTTCCCCAGGGAGATGCCTATGGTCCCCGCGTAGG (structured_DNA) [A1 -40/3'] |  |  |  |  | no binding
B2 |  |  |  |  | no binding
